Laboratory results: US20250011410A1 (INVETX, published 2025)
Numbering of substitutions follows the chain as printed. In names and notes the source's numbering stands. Several values for one entry are separate records, joined by “and”; a condition that tells them apart may be missing. Equal entries are not always repeated.

B1: felinized clone 101 Fab-SASA (wild-type) (Fab, V domains shown, not shown: small tags and cut ends)
VH: DVQLVESGGDLVKPGGSLRLTCVASGLSLTSSSMSWVRQAPGKGLQWVSTIYSNGGTYYTDSVKGRFTISKDNAENTLYLQMNNLKTEDTATYYCASIYYYDADYLHWYFDFWGQGALVTVSS
VL: EIQMTQSPTSLSASVGDRVTITCRASEGISNNLSWYQQTPGKAPKLLIYATSNLHSGVPSRFSGSGSGTDFTLTISSLQPEDFATYYCQQGYKWPLTFGGGTKLEITR
B2: felinized clone 101 (antibody, V domains shown)
VH: B1 VH
VL: EIQMTQSPTSLSASVGDRVTITCRASEGISNNLSWYQQTPGKAPKLLIYATSNLHSGVPSRFSGSGSGTDFTLTISSLQPEDFATYYCQQGYKWPLTFGGGTKLEIT
B3: AHF17601 (Fab, V domains shown, not shown: small tags and cut ends)
VH: B1 VH with S35V, G55R, S97Q, F112E
VL: B1 VL with S30A
B4: AHF17596 (Fab, V domains shown, not shown: small tags and cut ends)
VH: B1 VH with S35V, G55R
VL: B1 VL with S30A, N53V
B5: AHF17608 (Fab, V domains shown, not shown: small tags and cut ends)
VH: B1 VH with S35V, G55R
VL: B1 VL with S30A, N53V
B6: felinized clone 101 Fab-SASA variant Y99F (VH) (Fab, V domains shown, not shown: small tags and cut ends)
VH: B1 VH with Y99F
VL: B1 VL
B7: AHF17600 (Fab, V domains shown, not shown: small tags and cut ends)
VH: B1 VH with S35V, G55R
VL: B1 VL with N53V
B8: AHF17595 (Fab, V domains shown, not shown: small tags and cut ends)
VH: B1 VH with S35V, G55R, F112E
VL: B1 VL with S30Q
B9: felinized clone 101 Fab-SASA variant T60H (VH) (Fab, V domains shown, not shown: small tags and cut ends)
VH: B1 VH with T60H
VL: B1 VL
B10: AHF17605 (Fab, V domains shown, not shown: small tags and cut ends)
VH: B1 VH with S35V, S97Q
VL: B1 VL with S30A, N53I
notes: Fab-SASA, combinatorial library
B11: AHF17602 (Fab-SASA) (Fab, V domains shown, not shown: small tags and cut ends)
VH: B1 VH with S35V, G55R
VL: B1 VL with S30A
B12: felinized clone 101 Fab-SASA variant T60D (VH) (Fab, V domains shown, not shown: small tags and cut ends)
VH: B1 VH with T60D
VL: B1 VL
B13: AHF17592 (Fab, V domains shown, not shown: small tags and cut ends)
VH: B1 VH with S35V, G55R
VL: B1 VL with N53V
B14: AHF17604 (Fab, V domains shown, not shown: small tags and cut ends)
VH: B1 VH with S35V, G55R, S97Q
VL: B1 VL with S30Q, N53I
notes: as for B10
B15: AHF17609 (Fab, V domains shown, not shown: small tags and cut ends)
VH: B1 VH with S35V, G55R
VL: B1 VL with S30A, N53I
B16: felinized clone 101 Fab-SASA variant Y58D (VH) (Fab, V domains shown, not shown: small tags and cut ends)
VH: B1 VH with Y58D
VL: B1 VL
B17: AHF17593 (Fab, V domains shown, not shown: small tags and cut ends)
VH: B1 VH with S35V, G55R, S97Q
VL: B1 VL with S30A, N53V
notes: as for B10
B18: felinized clone 101 Fab-SASA variant T60S (VH) (Fab, V domains shown, not shown: small tags and cut ends)
VH: B1 VH with T60S
VL: B1 VL
B19: AHF17603 (Fab, V domains shown, not shown: small tags and cut ends)
VH: B1 VH with S35V, F112E
VL: B1 VL with S30A, N53I
B20: felinized clone 101 Fab-SASA variant T60E (VH) (Fab, V domains shown, not shown: small tags and cut ends)
VH: B1 VH with T60E
VL: B1 VL
B21: AHF17597 (Fab, V domains shown, not shown: small tags and cut ends)
VH: B1 VH with S35V, G55R
VL: B1 VL with S30Q, N53I
B22: felinized clone 101 Fab-SASA variant Y52W (VH) (Fab, V domains shown, not shown: small tags and cut ends)
VH: B1 VH with Y52W
VL: B1 VL
B23: AHF17607 (Fab, V domains shown, not shown: small tags and cut ends)
VH: B1 VH with S35V, G55R, F112E
VL: B1 VL with N53I
B24: AHF17598 (Fab, V domains shown, not shown: small tags and cut ends)
VH: B1 VH with S35V, G55R, F112E
VL: B1 VL with S30A, N53I
B25: AHF17599 (Fab, V domains shown, not shown: small tags and cut ends)
VH: B1 VH with S35V, G55R
VL: B1 VL with S30A, N53V
B26: felinized clone 101 Fab-SASA variant Y101H (VH) (Fab, V domains shown, not shown: small tags and cut ends)
VH: B1 VH with Y101H
VL: B1 VL
B27: AHF17591 (Fab, V domains shown, not shown: small tags and cut ends)
VH: B1 VH with S35V, G55R, F112E
VL: B1 VL with S30A, N53I
B28: AHF17606 (Fab, V domains shown, not shown: small tags and cut ends)
VH: B1 VH with S35V, G55R
VL: B1 VL with S30A
B29: AHF17594 (Fab, V domains shown, not shown: small tags and cut ends)
VH: B1 VH with S35V
VL: B1 VL with S30A, N53V
B30: AHF17610 (Fab, V domains shown, not shown: small tags and cut ends)
VH: B1 VH with S35V, G55R
VL: B1 VL with S30A

What was measured:
[1] = target: T1, canine NGF tagged at the C-terminus with the Flag tag (canine, UniProt A0A8I3PYI3 122-241); test: SPR off-rate assay, Fab-SASA on BSA chip
T1 construct: mature; Expressed with baculovirus technology; also called feline NGF (processed form identical)
T1 sequence (A0A8I3PYI3 entry or part of it): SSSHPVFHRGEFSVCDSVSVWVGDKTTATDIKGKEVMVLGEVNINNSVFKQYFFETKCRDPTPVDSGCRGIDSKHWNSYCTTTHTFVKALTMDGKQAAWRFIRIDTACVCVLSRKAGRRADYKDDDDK

[2] = target: T1, canine NGF tagged at the C-terminus …; test: SPR off-rate screen, Fab-SASA on BSA chip
[3] = target: T2, canine NGF tagged at the C-terminus with the Flag tag (canine, UniProt A0A8I3PYI3 122-241); test: SPR, Biacore T200; antibody captured on anti-feline CM5 chip, NGF as analyte; 1:1 model
T2 construct: mature; 'mature' rests on the words 'processed form'; also called feline NGF (processed form identical)
T2 sequence (A0A8I3PYI3 entry or part of it): as above

| Binder | Kd [1] | Ratio (KD) WT/clones [1] | koff [1] | kon [1] | Kd [2] | Ratio WT-kd/clone-kd [2] | koff [2] | kon [2] | Kd [3] [nM] | koff [3] [s⁻¹] | kon [3] [M⁻¹ s⁻¹] | Ratio (kd) WT/clones [1] |
| --- | --- | --- | --- | --- | --- | --- | --- | --- | --- | --- | --- | --- |
| B1 | 3.15 nM and 3.78 nM and 3.47 nM | 0 | 0.00179 s⁻¹ and 0.00158 s⁻¹ and 0.00169 s⁻¹ | 569000 M⁻¹ s⁻¹ and 419000 M⁻¹ s⁻¹ and 494000 M⁻¹ s⁻¹ | 2.62 nM and 2.65 nM and 2.69 nM | 1 | 0.000939 s⁻¹ and 0.000943 s⁻¹ and 0.000947 s⁻¹ | 359000 M⁻¹ s⁻¹ and 355000 M⁻¹ s⁻¹ and 351000 M⁻¹ s⁻¹ |  |  |  |  |
| B2 |  |  |  |  |  |  |  |  | 1.75 | 0.00138 | 784000 |  |
| B3 | ≤ 0.00344 nM | 1010 | ≤ 1e-06 s⁻¹ | 291000 M⁻¹ s⁻¹ |  |  |  |  |  |  |  | 1680 |
| B4 | 0.0802 nM | 43.1 | 1.82e-05 s⁻¹ | 227000 M⁻¹ s⁻¹ |  |  |  |  |  |  |  | 92.6 |
| B5 | ≤ 0.00439 nM | 788 | ≤ 1e-06 s⁻¹ | 228000 M⁻¹ s⁻¹ |  |  |  |  |  |  |  | 1680 |
| B6 |  |  |  |  | 1.46 nM | 2.01 | 0.000469 s⁻¹ | 321000 M⁻¹ s⁻¹ |  |  |  |  |
| B7 | 0.329 nM | 10.5 | 5.81e-05 s⁻¹ | 177000 M⁻¹ s⁻¹ |  |  |  |  |  |  |  | 29 |
| B8 | ≤ 0.00562 nM | 615 | ≤ 1e-06 s⁻¹ | 178000 M⁻¹ s⁻¹ |  |  |  |  |  |  |  | 1680 |
| B9 |  |  |  |  | 1.8 nM | 1.68 | 0.000561 s⁻¹ | 312000 M⁻¹ s⁻¹ |  |  |  |  |
| B10 | 0.82 nM | 4.21 | 0.000207 s⁻¹ | 253000 M⁻¹ s⁻¹ |  |  |  |  |  |  |  | 8.14 |
| B11 | ≤ 0.00476 nM | 726 | ≤ 1e-06 s⁻¹ | 210000 M⁻¹ s⁻¹ |  |  |  |  |  |  |  | 1680 |
| B12 |  |  |  |  | 1.93 nM | 1.66 | 0.000567 s⁻¹ | 294000 M⁻¹ s⁻¹ |  |  |  |  |
| B13 | 0.0761 nM | 45.4 | 1.46e-05 s⁻¹ | 192000 M⁻¹ s⁻¹ |  |  |  |  |  |  |  | 115 |
| B14 | 0.321 nM | 10.8 | 4.66e-05 s⁻¹ | 145000 M⁻¹ s⁻¹ |  |  |  |  |  |  |  | 36.2 |
| B15 | ≤ 0.00439 nM | 788 | ≤ 1e-06 s⁻¹ | 228000 M⁻¹ s⁻¹ |  |  |  |  |  |  |  | 1680 |
| B16 |  |  |  |  | 1.47 nM | 1.68 | 0.000562 s⁻¹ | 381000 M⁻¹ s⁻¹ |  |  |  |  |
| B17 | ≤ 0.00613 nM | 563 | ≤ 1e-06 s⁻¹ | 163000 M⁻¹ s⁻¹ |  |  |  |  |  |  |  | 1680 |
| B18 |  |  |  |  | 1.76 nM | 1.65 | 0.000573 s⁻¹ | 325000 M⁻¹ s⁻¹ |  |  |  |  |
| B19 | 0.664 nM | 5.2 | 0.000245 s⁻¹ | 368000 M⁻¹ s⁻¹ |  |  |  |  |  |  |  | 6.88 |
| B20 |  |  |  |  | 2.38 nM | 1.38 | 0.000683 s⁻¹ | 287000 M⁻¹ s⁻¹ |  |  |  |  |
| B21 | 0.0544 nM | 63.5 | 1.08e-05 s⁻¹ | 199000 M⁻¹ s⁻¹ |  |  |  |  |  |  |  | 156 |
| B22 |  |  |  |  | 1.5 nM | 1.45 | 0.000651 s⁻¹ | 434000 M⁻¹ s⁻¹ |  |  |  |  |
| B23 | ≤ 0.00442 nM | 781 | ≤ 1e-06 s⁻¹ | 226000 M⁻¹ s⁻¹ |  |  |  |  |  |  |  | 1680 |
| B24 | 0.179 nM | 19.3 | 5.25e-05 s⁻¹ | 294000 M⁻¹ s⁻¹ |  |  |  |  |  |  |  | 32.1 |
| B25 | ≤ 0.00472 nM | 732 | ≤ 1e-06 s⁻¹ | 212000 M⁻¹ s⁻¹ |  |  |  |  |  |  |  | 1680 |
| B26 |  |  |  |  | 1.62 nM | 1.9 | 0.000496 s⁻¹ | 307000 M⁻¹ s⁻¹ |  |  |  |  |
| B27 | ≤ 0.00373 nM | 926 | ≤ 1e-06 s⁻¹ | 268000 M⁻¹ s⁻¹ |  |  |  |  |  |  |  | 1680 |
| B28 | 0.107 nM | 32.3 | 2.01e-05 s⁻¹ | 187000 M⁻¹ s⁻¹ |  |  |  |  |  |  |  | 83.8 |
| B29 | 0.931 nM | 3.71 | 0.000328 s⁻¹ | 353000 M⁻¹ s⁻¹ |  |  |  |  |  |  |  | 5.14 |
| B30 | ≤ 0.00549 nM | 629 | ≤ 1e-06 s⁻¹ | 182000 M⁻¹ s⁻¹ |  |  |  |  |  |  |  | 1680 |
